Here are results for 27 molecules from publication PMC10786891, “Massively parallel profiling of RNA-targeting CRISPR-Cas13d”.

The labels stand for the following.
T1: EsCas13d, nuclease-dead (Eubacterium siraeum, UniProt B0MS50, R295A;H300A;R849A;H854A)
T1 sequence: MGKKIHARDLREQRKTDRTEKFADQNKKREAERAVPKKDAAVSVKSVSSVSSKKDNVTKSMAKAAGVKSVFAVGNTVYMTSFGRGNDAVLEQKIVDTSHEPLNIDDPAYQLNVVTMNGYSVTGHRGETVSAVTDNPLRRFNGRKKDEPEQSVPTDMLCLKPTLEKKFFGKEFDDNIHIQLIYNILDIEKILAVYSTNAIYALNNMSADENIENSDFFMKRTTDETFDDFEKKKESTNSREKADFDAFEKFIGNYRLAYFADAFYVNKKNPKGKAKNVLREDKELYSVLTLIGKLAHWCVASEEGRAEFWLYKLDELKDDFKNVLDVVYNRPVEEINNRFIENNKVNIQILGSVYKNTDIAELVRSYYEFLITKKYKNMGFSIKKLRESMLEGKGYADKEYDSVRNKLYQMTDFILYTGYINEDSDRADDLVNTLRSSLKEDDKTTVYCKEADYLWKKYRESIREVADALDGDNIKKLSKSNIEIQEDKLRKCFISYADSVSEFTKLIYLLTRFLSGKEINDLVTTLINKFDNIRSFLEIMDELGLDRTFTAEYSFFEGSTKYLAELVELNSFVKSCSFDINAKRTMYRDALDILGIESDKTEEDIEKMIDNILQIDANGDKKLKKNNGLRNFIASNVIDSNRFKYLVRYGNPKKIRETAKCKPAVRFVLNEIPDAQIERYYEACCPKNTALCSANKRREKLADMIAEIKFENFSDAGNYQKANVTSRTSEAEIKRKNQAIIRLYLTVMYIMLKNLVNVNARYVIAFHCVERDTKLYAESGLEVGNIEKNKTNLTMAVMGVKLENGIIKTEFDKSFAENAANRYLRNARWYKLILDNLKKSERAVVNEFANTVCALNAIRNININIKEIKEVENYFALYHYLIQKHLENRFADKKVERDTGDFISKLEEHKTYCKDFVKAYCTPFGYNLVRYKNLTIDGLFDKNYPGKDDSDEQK

B1: target 3 insA 3' of 7,insC 3' of 4 (mixed)
RNA 1: CACCCGUGCAAAAUUGCAGGGGUCUAAAACGACCUGAAUAUUUCAGAUCAAA
RNA 2: GGGAAUGGAUCCACAUCUACGAAUUCGUUUUUGAUCUGAAAUAUUACAGCGUCUGCAGAUCGGAAGAGCACACGU
B2: target 3 insU 3' of 22,insU 3' of 13 (mixed)
RNA 1: CACCCGUGCAAAAUUGCAGGGGUCUAAAACGACCUGAAUAUUUCAGAUCAAA
RNA 2: GGGAAUGGAUCCACAUCUACGAAUUCGUUUUUUGAUCUGAUAAUAUUCAGGUCUGCAGAUCGGAAGAGCACACGU
B3: target 3 insA 3' of 8,insA 3' of 3 (mixed)
RNA 1: CACCCGUGCAAAAUUGCAGGGGUCUAAAACGACCUGAAUAUUUCAGAUCAAA
RNA 2: GGGAAUGGAUCCACAUCUACGAAUUCGUUUUUGAUCUGAAAUAUAUCAGGAUCUGCAGAUCGGAAGAGCACACGU
B4: target 3 del4,del8 (mixed)
RNA 1: CACCCGUGCAAAAUUGCAGGGGUCUAAAACGACCUGAAUAUUUCAGAUCAAA
RNA 2: GGGAAUGGAUCCACAUCUACGAAUUCGUUUUUGAUCUGAAAUAUCAGUCUGCAGAUCGGAAGAGCACACGU
B5: target 3 U2A,U22C (mixed)
RNA 1: CACCCGUGCAAAAUUGCAGGGGUCUAAAACGACCUGAAUAUUUCAGAUCAAA
RNA 2: GGGAAUGGAUCCACAUCUACGAAUUCGUUCUUGAUCUGAAAUAUUCAGGACUGCAGAUCGGAAGAGCACACGU
B6: target 3 A5U,C6A (mixed)
RNA 1: CACCCGUGCAAAAUUGCAGGGGUCUAAAACGACCUGAAUAUUUCAGAUCAAA
RNA 2: GGGAAUGGAUCCACAUCUACGAAUUCGUUUUUGAUCUGAAAUAUUAUGGUCUGCAGAUCGGAAGAGCACACGU
B7: target 3 insC 3' of 9,insG 3' of 7 (mixed)
RNA 1: CACCCGUGCAAAAUUGCAGGGGUCUAAAACGACCUGAAUAUUUCAGAUCAAA
RNA 2: GGGAAUGGAUCCACAUCUACGAAUUCGUUUUUGAUCUGAAAUACUUGCAGGUCUGCAGAUCGGAAGAGCACACGU
B8: target 3 C1A,C16U (mixed)
RNA 1: CACCCGUGCAAAAUUGCAGGGGUCUAAAACGACCUGAAUAUUUCAGAUCAAA
RNA 2: GGGAAUGGAUCCACAUCUACGAAUUCGUUUUUGAUUUGAAAUAUUCAGGUAUGCAGAUCGGAAGAGCACACGU
B9: target 3 U21A,U22A (mixed)
RNA 1: CACCCGUGCAAAAUUGCAGGGGUCUAAAACGACCUGAAUAUUUCAGAUCAAA
RNA 2: GGGAAUGGAUCCACAUCUACGAAUUCGUUAAUGAUCUGAAAUAUUCAGGUCUGCAGAUCGGAAGAGCACACGU
B10: target 3 C6A,A9G (mixed)
RNA 1: CACCCGUGCAAAAUUGCAGGGGUCUAAAACGACCUGAAUAUUUCAGAUCAAA
RNA 2: GGGAAUGGAUCCACAUCUACGAAUUCGUUUUUGAUCUGAAAUGUUAAGGUCUGCAGAUCGGAAGAGCACACGU
B11: target 3 insG 3' of 5,insG 3' of 1 (mixed)
RNA 1: CACCCGUGCAAAAUUGCAGGGGUCUAAAACGACCUGAAUAUUUCAGAUCAAA
RNA 2: GGGAAUGGAUCCACAUCUACGAAUUCGUUUUUGAUCUGAAAUAUUCAGGGUCGUGCAGAUCGGAAGAGCACACGU
B12: target 3 C1A,U2A (mixed)
RNA 1: CACCCGUGCAAAAUUGCAGGGGUCUAAAACGACCUGAAUAUUUCAGAUCAAA
RNA 2: GGGAAUGGAUCCACAUCUACGAAUUCGUUUUUGAUCUGAAAUAUUCAGGAAUGCAGAUCGGAAGAGCACACGU
B13: target 3 U2A,A12U (mixed)
RNA 1: CACCCGUGCAAAAUUGCAGGGGUCUAAAACGACCUGAAUAUUUCAGAUCAAA
RNA 2: GGGAAUGGAUCCACAUCUACGAAUUCGUUUUUGAUCUGAUAUAUUCAGGACUGCAGAUCGGAAGAGCACACGU
B14: target 3 insA 3' of 6,insC 3' of 3 (mixed)
RNA 1: CACCCGUGCAAAAUUGCAGGGGUCUAAAACGACCUGAAUAUUUCAGAUCAAA
RNA 2: GGGAAUGGAUCCACAUCUACGAAUUCGUUUUUGAUCUGAAAUAUUCAAGGCUCUGCAGAUCGGAAGAGCACACGU
B15: target 3 insU 3' of 16,insC 3' of 3 (mixed)
RNA 1: CACCCGUGCAAAAUUGCAGGGGUCUAAAACGACCUGAAUAUUUCAGAUCAAA
RNA 2: GGGAAUGGAUCCACAUCUACGAAUUCGUUUUUGAUCUUGAAAUAUUCAGGCUCUGCAGAUCGGAAGAGCACACGU
B16: target 3 insG 3' of 2,insA 3' of 1 (mixed)
RNA 1: CACCCGUGCAAAAUUGCAGGGGUCUAAAACGACCUGAAUAUUUCAGAUCAAA
RNA 2: GGGAAUGGAUCCACAUCUACGAAUUCGUUUUUGAUCUGAAAUAUUCAGGUGCAUGCAGAUCGGAAGAGCACACGU
B17: target 3 C1G,U2A (mixed)
RNA 1: CACCCGUGCAAAAUUGCAGGGGUCUAAAACGACCUGAAUAUUUCAGAUCAAA
RNA 2: GGGAAUGGAUCCACAUCUACGAAUUCGUUUUUGAUCUGAAAUAUUCAGGAGUGCAGAUCGGAAGAGCACACGU
B18: target 3 C16U (mixed)
RNA 1: CACCCGUGCAAAAUUGCAGGGGUCUAAAACGACCUGAAUAUUUCAGAUCAAA
RNA 2: GGGAAUGGAUCCACAUCUACGAAUUCGUUUUUGAUUUGAAAUAUUCAGGUCUGCAGAUCGGAAGAGCACACGU
B19: target 3 U7C,U8G (mixed)
RNA 1: CACCCGUGCAAAAUUGCAGGGGUCUAAAACGACCUGAAUAUUUCAGAUCAAA
RNA 2: GGGAAUGGAUCCACAUCUACGAAUUCGUUUUUGAUCUGAAAUAGCCAGGUCUGCAGAUCGGAAGAGCACACGU
B20: target 3 insC 3' of 11,insG 3' of 2 (mixed)
RNA 1: CACCCGUGCAAAAUUGCAGGGGUCUAAAACGACCUGAAUAUUUCAGAUCAAA
RNA 2: GGGAAUGGAUCCACAUCUACGAAUUCGUUUUUGAUCUGAAACUAUUCAGGUGCUGCAGAUCGGAAGAGCACACGU
B21: target 3 insU 3' of 22,insU 3' of 3 (mixed)
RNA 1: CACCCGUGCAAAAUUGCAGGGGUCUAAAACGACCUGAAUAUUUCAGAUCAAA
RNA 2: GGGAAUGGAUCCACAUCUACGAAUUCGUUUUUUGAUCUGAAAUAUUCAGGUUCUGCAGAUCGGAAGAGCACACGU
B22: target 3 U2C,C6A (mixed)
RNA 1: CACCCGUGCAAAAUUGCAGGGGUCUAAAACGACCUGAAUAUUUCAGAUCAAA
RNA 2: GGGAAUGGAUCCACAUCUACGAAUUCGUUUUUGAUCUGAAAUAUUAAGGCCUGCAGAUCGGAAGAGCACACGU
B23: target 3 C1U,U2A (mixed)
RNA 1: CACCCGUGCAAAAUUGCAGGGGUCUAAAACGACCUGAAUAUUUCAGAUCAAA
RNA 2: GGGAAUGGAUCCACAUCUACGAAUUCGUUUUUGAUCUGAAAUAUUCAGGAUUGCAGAUCGGAAGAGCACACGU
B24: target 3 G3U,U8A (mixed)
RNA 1: CACCCGUGCAAAAUUGCAGGGGUCUAAAACGACCUGAAUAUUUCAGAUCAAA
RNA 2: GGGAAUGGAUCCACAUCUACGAAUUCGUUUUUGAUCUGAAAUAAUCAGUUCUGCAGAUCGGAAGAGCACACGU
B25: target 1 insA 3' of 22,insA 3' of 6 (mixed)
RNA 1: CACCCGUGCAAAAAUGCAGGGGUCUAAAACUGAGCGGAUAACCUCUCUAUGG
RNA 2: GGGAAUGGAUCCACAUCUACGAAUUCGUACACAUAGAGAGGUUAUCCAGCUCACCGAGAUCGGAAGAGCACACGU
B26: target 1 C2U,G5A (mixed)
RNA 1: CACCCGUGCAAAAAUGCAGGGGUCUAAAACUGAGCGGAUAACCUCUCUAUGG
RNA 2: GGGAAUGGAUCCACAUCUACGAAUUCGUACCAUAGAGAGGUUAUCCACUUACCGAGAUCGGAAGAGCACACGU
B27: target 1 insC 3' of 17,insU 3' of 2 (mixed)
RNA 1: CACCCGUGCAAAAAUGCAGGGGUCUAAAACUGAGCGGAUAACCUCUCUAUGG
RNA 2: GGGAAUGGAUCCACAUCUACGAAUUCGUACCAUAGCAGAGGUUAUCCGCUCUACCGAGAUCGGAAGAGCACACGU

In the data set the target is T1, EsCas13d, nuclease-dead. Put plainly: crRNA (strand 1, pre-loaded); Mg2+; 40 mM Tris-HCl pH 7.5, 150 mM NaCl, 6 mM MgCl2, 1 mM DTT, 0.1% Tween-20, 0.2 mg/ml BSA; 25 C; 10 min per concentration, then washed. The following applies: tags: His6-TwinStrep-SUMO cleaved; N-terminal SNAP kept (SNAP-Surface 488); label: 3' end held by stalled T7 RNA polymerase.
Molecule B1 showed a Kd of 48.5 ± 8 nM. The value for B2 was 71 ± 33 nM. As for B3, the figure is 73 ± 18.5 nM. The value for B4 was 97 ± 29 nM; that for B5 was 23.1 ± 3.7 nM; that for B6 was 29.9 ± 2.7 nM. Regarding B7, the Kd is 88 ± 21 nM. This Kd is about 2.9-fold higher than that of the molecule before. As for B8, the figure is ~91 nM.

In turn, B9 came in with a Kd of 26.6 ± 3 nM. As for B10, the figure is 59.5 ± 13 nM; as for B11, 37 ± 9.5 nM; as for B12, 49 ± 6.5 nM. As for B13, the figure is 79 ± 17 nM.

As to B14, the Kd was found to be 7.7 ± 0.6 nM. As for B15, the figure is 64.5 ± 10 nM; as for B16, 54.2 ± 6.65 nM; as for B17, 4.6 ± 0.7 nM. The value for B18 was 82.5 ± 14 nM; that for B19 was 73.5 ± 12.5 nM.

Regarding B20, the affinity, expressed as Kd, was 54 ± 14 nM. As for B21, the figure is 27.2 ± 4.15 nM; as for B22, 39 ± 7 nM. The value for B23 was 86 ± 24 nM; that for B24 was 89 ± 14.5 nM. The value for B25 was 22.2 ± 1.3 nM. B26 returned a Kd of 49 ± 9 nM. The value for B27 was 55 ± 18 nM.

As usually defined, the Kd is the equilibrium constant for the complex coming apart. A lower Kd goes with tighter binding.
